Reference: PMC10311840, “Purification and characterization of inorganic pyrophosphatase for in vitro RNA transcription” (Biochemistry and cell biology = Biochimie et biologie …, 2022)
Where “and” joins values, the source holds several entries; their conditions need not be identical. Equal values may be shown once.

Assays:
[1] = biological target: the molecule itself; experiment: SEC-MALS; SEC-MALS-DLS; Superdex 200 Increase 10/300 GL; 355 umol/L affinity-purified iPPase injected in 500 uL; 25 C; 80 mmol/L Tris-HCl pH 7.5, 30 mmol/L MgCl2, 4 mmol/L spermidine, 20 mmol/L NaCl, 4 mmol/L DTT; self-association, dimer, tetramer and hexamer peaks
[2] = biological target: the molecule itself; experiment: SEC-SAXS; HPLC-SAXS at Diamond B21; 50 uL of 450 umol/L iPPase on Superdex 200 Increase 3.2/300 GL; dimer and tetramer peaks analysed, hexamer peak not usable; self-association

B1: yeast inorganic pyrophosphatase (enzyme)
chain: TYTTRQIGAKNTLEYKVYIEKDGKPVSAFHDIPLYADKENNIFNMVVEIPRWTNAKLEITKEETLNPIIQDTKKGKLRFVRNCFPHHGYIHNYGAFPQTWEDPNVSHPETKAVGDNDPIDVLEIGETIAYTGQVKQVKALGIMALLDEGETDWKVIAIDINDPLAPKLNDIEDVEKYFPGLLRATNEWFRIYKIPDGKPENQFAFSGEAKNKKYALDIIKETHDSWKQLIAGKSSDSKGIDLTNVTLPDTPTYSKAASDAIPPASPKADAPIDKSIDKWFFISGSV
notes: inorganic pyrophosphatase, product of the yeast gene IPP1, family 1 iPPase (EC 3.6.1.1); expressed from plasmid pET29b-IPP1-His; no cleavage is described; also called iPPase; yeast iPPase
stoichiometry N [1]: 2 and 6 | stoichiometry N [2]: 4
